Source: US20180009892A1 (EUREKA THERAPEUTICS, published 2018)

Columns and labels:
[1] = target: T1, ROR1 extracellular domain Fc fusion:Fc heterodimer, monomer (human); test: SPR, immobilised ROR1 monomer, antibody injected, 1:1 model
T1 construct: Heterodimer of one ROR1 ECD-Fc chain and one Fc chain; also called ROR1 monomer; hROR1 monomeric ECD-Fc fusion protein; not shown: Fc part; Fc alone
Description: (§1) The binding affinities of ROR1 extracellular domain dimer and monomer for anti-ROR1 antibodies were determined by surface plasmon resonance (SPR). ROR1 extracellular domain Fc-fusion, “dimer,” and ROR1 extracellular domain Fc fusion:Fc heterodimer, “monomer,” are the dimer and monomeric forms of ROR1 used for affinity analysis, respectively. Briefly, ROR1 dimer and monomer were directly immobilized to a CM4 chip using an amine coupling kit and 100 mM ethylenediamine in 100 mM Sodium Borate buffer, pH 8.0 as the blocking reagent. Approximately 100-150 RU of ROR1 dimer and monomer were immobilized on separate flow cells and an un-derivatized flow cell was used as a reference control. […] Dissociation was followed for 180 seconds. The association constant, dissociation constant, and affinity of each anti-ROR1 antibody was calculated using the Biacore T200 Evaluation Software 1:1 binding model.
(§2) Sensorgrams were normalized to 100 RU using the “binding stability point” at the end of the association phase but before the dissociation phase.

[2] = target: T2, ROR1 extracellular domain Fc-fusion, dimer (human, UniProt Q01973 30-406); test: SPR, immobilised ROR1 dimer, antibody injected, 1:1 model; apparent affinity
T2 construct: also called ROR1 dimer; hROR1 dimeric ECD-Fc fusion protein; not shown: Fc part
Description: as §1, §2

[3] = target: T2, ROR1 extracellular domain Fc-fusion, …; test: SPR, immobilised ROR1 dimer, antibody injected, 1:1 model
Description: as §1, §2

human ROR2-ECD = target: T3, human ROR2-ECD (human, UniProt Q01974 34-403); test: protein ELISA, phage
T3 construct: extracellular domain; also called hROR2

[4] = target: T4, human ROR1 extracellular domain (ECD) protein (human, UniProt Q01973 30-406); test: competitive phage ELISA: soluble ROR1 against ROR1-coated plate
T4 construct: also called hROR1-ECD; human ROR1-ECD
Description: Purified phage antibodies were first diluted serially in PBST buffer, and tested for binding to a ROR1-coated plate. The dilution that gave 50-80% saturating signal was used in the solution binding assay in which phage were first incubated with increasing concentration of ROR1 for one to two hours, and then transferred to a ROR1-coated plate for 10-15 minutes to capture the unbound phage.

T3 sequence (Q01974 34-403): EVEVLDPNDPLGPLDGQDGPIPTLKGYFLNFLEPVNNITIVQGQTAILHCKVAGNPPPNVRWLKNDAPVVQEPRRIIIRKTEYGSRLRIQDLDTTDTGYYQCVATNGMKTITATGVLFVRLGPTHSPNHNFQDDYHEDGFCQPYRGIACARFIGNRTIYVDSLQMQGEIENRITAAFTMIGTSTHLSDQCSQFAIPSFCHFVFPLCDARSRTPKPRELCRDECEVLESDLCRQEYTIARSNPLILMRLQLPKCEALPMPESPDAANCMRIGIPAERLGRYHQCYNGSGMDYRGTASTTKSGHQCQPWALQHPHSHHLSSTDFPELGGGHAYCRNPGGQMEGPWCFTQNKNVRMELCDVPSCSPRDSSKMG
T4 sequence (Q01973 30-406 limits assumed): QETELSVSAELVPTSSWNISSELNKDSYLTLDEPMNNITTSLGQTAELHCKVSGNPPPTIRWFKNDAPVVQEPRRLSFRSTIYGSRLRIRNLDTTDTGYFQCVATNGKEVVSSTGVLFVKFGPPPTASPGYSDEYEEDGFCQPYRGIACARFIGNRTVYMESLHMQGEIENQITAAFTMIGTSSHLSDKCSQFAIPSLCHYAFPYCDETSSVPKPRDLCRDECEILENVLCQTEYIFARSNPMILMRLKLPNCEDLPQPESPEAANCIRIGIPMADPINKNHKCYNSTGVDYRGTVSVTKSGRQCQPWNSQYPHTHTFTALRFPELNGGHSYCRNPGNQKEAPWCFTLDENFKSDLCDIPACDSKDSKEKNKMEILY
T2 sequence (Q01973 30-406): as the sequence (Q01973 30-406 limits assumed) above
T1 sequence (Q01973 30-406, one chain of several): as the sequence (Q01973 30-406 limits assumed) above

B1: Antibody 601-100 (antibody, V domains shown)
VH: EVQLVQSGGGVVQPGGPLRLSCAASGFTFSSYSMNWVRQAPGKGLEWVSSISSSSSYIYYADSVKGRFTISRDNAKNSLYLQMNSLRAEDTAVYYCARGLGGWTHDAFDIWGQGTMVTVSS
VL: QSALTQPASVSGSPGQSITISCTGTSRDVGGYDYVSWYQQYPGNAPKLMIYDVSRRPSGVSHRFSASKSGNTASLTISGLQTEDEADYYCSSYTSSSTRVFGGGTKVTVL
- Kd [1]: 8.2 nM
- koff [1]: 0.0028 s⁻¹
- kon [1]: 350000 M⁻¹ s⁻¹
- Kd [2]: 3.9 nM
- koff [3]: 0.0017 s⁻¹
- kon [3]: 440000 M⁻¹ s⁻¹

B2: Antibody 601-119 (antibody, V domains shown)
VH: QVQLVQSGGGLVKPGGSLRLSCAASGFTFGTYSMNWVRQAPGKGLEWVSSISSSSSYIYYADSVKGRFTISRDNAKNSLYLQMNSLRAEDTAVYYCARGLGGWTHDAFDIWGQGTTVTVSS
VL: QSALTQPASVSASPGQSITISCTGTSSDVGGYNYVTWYQQHPGKAPKLMIYDVSKRPSGVLDRFSGSKSGNTASLTISGLQAEDEADYFCSSYTSSSTLVFGGGTKLTVLG
- Kd [1]: 407 nM
- koff [1]: 0.095 s⁻¹
- kon [1]: 230000 M⁻¹ s⁻¹
- Kd [2]: 178 nM
- koff [3]: 0.079 s⁻¹
- kon [3]: 440000 M⁻¹ s⁻¹

B3: Antibody 601-103 (antibody, V domains shown)
VH: EVQLVQSGGDLVQPGGSLRLSCAASGFTFSSYSMNWVRQAPGKGLEWVSSISSSSSYIYYADSVKGRFTISRDNAKNSLYLQMNSLRAEDTAVYYCARGLGGWTHDAFDIWGQGTTVTVSS
VL: QSVLTQPASVSGSPGQSITISCTGTTSDVGGYNYVSWYQQHPGKAPKLMIYDVSKRPSGVSNRFSGSKSGNTASLTISGLQAEDEADYYCSSYTSSSTDVFGTGTKLTVL
- Kd [1]: 40.2 nM
- koff [1]: 0.005 s⁻¹
- kon [1]: 120000 M⁻¹ s⁻¹
- Kd [2]: 20.7 nM
- koff [3]: 0.0035 s⁻¹
- kon [3]: 170000 M⁻¹ s⁻¹

B4: Antibody 601-28 (antibody, V domains shown)
VH: EVQLVQSGGDLVQPGGSLRLSCAASGFTFSSYSMNWVRQAPGKGLEWVSSISSSSSYIYYADSVKGRFTISRDNAKNSLYLQMNSLRAEDTAVYYCARGLGGWTHDAFDIWGQGTTVTVSS
VL: QSALTQPASVSGSPGQSITISCTGTSSDVGGYNYVSWYQQHPGKAPKLMIFDVSNRPSGVSNRFSGSKSGNTASLTISGLQAEDEADYYCSSYTSSSTLFGGGTKLTVL
- Kd [1]: 36.4 nM
- koff [1]: 0.012 s⁻¹
- kon [1]: 320000 M⁻¹ s⁻¹
- Kd [2]: 28.5 nM
- koff [3]: 0.0097 s⁻¹
- kon [3]: 340000 M⁻¹ s⁻¹

B5: P601-102 (scFv, V domains shown)
VH: QMQLVQSGGDLVQPGGSLRLSCAASGFTFSSYSMNWVRQAPGKGLEWVSSISSSSSYIYYADSVKGRFTISRDNAKNSLYLQMNSLRAEDTAVYYCARGLGGWTHDAFDIWGQGTTVTVSS
VL: QSALTQPASVSGSPGQSITISCTGTSSDVGGYNYVSWYQQHPGKAPKLMIYDVSKRPSGVSNRFSGSKSGNTASLTISGLQAEDEADYYCSSYTSSSTSVVFGGGTKLTVL
- binding result (human ROR2-ECD): no binding
- IC50 [4]: 10.2 nM

B6: P601-119 (scFv, V domains shown)
VH: QVQLVQSGGGLVKPGGSLRLSCAASGFTFGTYSMNWVRQAPGKGLEWVSSISSSSSYIYYADSVKGRFTISRDNAKNSLYLQMNSLRAEDTAVYYCARGLGGWTHDAFDIWGQGTTVTVSS
VL: QSALTQPASVSASPGQSITISCTGTSSDVGGYNYVTWYQQHPGKAPKLMIYDVSKRPSGVLDRFSGSKSGNTASLTISGLQAEDEADYFCSSYTSSSTLVFGGGTKLTVLG
- binding result (human ROR2-ECD): no binding
- IC50 [4]: 17.7 nM

B7: Antibody 601-112 (antibody, V domains shown)
VH: EVQLVQSGGDLVQPGGSLRLSCAASGFTFSSYSMNWVRQAPGKGLEWVSSISSSSSYIYYADSVKGRFTISRDNAKNSLYLQMNSLRAEDTAVYYCARGLGGWTHDAFDIWGQGTTVTVSS
VL: QSALTQPASVSGSPGQSITISCTGTSSDVGGYNYVSWYQQHPGKAPKLMIYDVSKRPSGVSNRFSGSKSGNTASLTISGLQAEDEADYYCSSYTGRSTVFGGGTKLTVL
- Kd [1]: 4.6 nM
- koff [1]: 0.0012 s⁻¹
- kon [1]: 270000 M⁻¹ s⁻¹
- Kd [2]: 1 nM
- koff [3]: 0.00032 s⁻¹
- kon [3]: 340000 M⁻¹ s⁻¹

B8: P601-69 (scFv, V domains shown)
VH: QVQLVQSGAEVKKPGESLKISCKGSGYSFTSYWIGWVRQMPGKGLEWMGIIYPGDSDTRYSPSFQGQVTISADKSISTAYLQWSSLKASDTAMYYCARLSSSSYDAFDIWGQGTMVTVSS
VL: QSALTQPASVSGSPGQSITISCTGTSSDVGGYNYVSWYQQHPGKAPKLMIYDVSNRPSGVSNRFSGSKSGNTASLTISGLQAEDEADYYCSSYTSSSIPWVFGGGTKLTVL
- binding result (human ROR2-ECD): no binding
- IC50 [4]: 9.81 nM

B9: P601-9 (scFv, V domains shown)
VH: QLQLQESGPGVVKPSGTLSLTCTVSGGSISRSDGYWGWVRQPPGKGLEWIGSIYDTGTTYYSPSLKSRLIISVDTSKNQFSLTLNSVTAADTAVYYCASMGGLRSSSSDAFHTWGPGTMVTVSS
VL: QSVLTQPPSVSVAPGETARITCGGTNIGSESVHWYQQRPGQAPVLVVYDDTDRPSGIPERFSGSNSGNTATLTISRVEAGDGADYYCQVWDSVSDRYVFGTGTKVTVL
- binding result (human ROR2-ECD): no binding
- IC50 [4]: 14.6 nM

B10: Antibody 601-130 (antibody, V domains shown)
VH: EVQLVETGGGLVKPGGSLRLSCEASGFSLSSYSMNWVRQAPGKGLEWVSSISSSSTHIYYADSLKGRFTISRDNAKNSLFLQMDNLRAEDTAVYYCARATIGFDYWGQGTLVTVSS
VL: QSVLTQPPSVSGAPGQRVTISCTGSSSNIGAGYDVHWYQQLPGTAPKLLIYGNSNRPSGVPDRFSGSKSGTSASLAITGLQAEDEADYYCQSYDSSLSGYVFGTGTKLTVL
- Kd [1]: 4.1 nM
- koff [1]: 0.0018 s⁻¹
- kon [1]: 450000 M⁻¹ s⁻¹
- Kd [2]: 2.2 nM
- koff [3]: 0.0012 s⁻¹
- kon [3]: 520000 M⁻¹ s⁻¹

B11: P601-50 (scFv, V domains shown)
VH: QVQLQQSGAEVKKPGASVKVSCKASGYTFSRYYIHWVRRAPGQGLEWMGLINPGGGSTNYAQKFQGRVTMTRDTSTNTVYLELSSLRSDDTAVYYCARDYGTIDARRFDFWGQGTLVTVSS
VL: QSALTQPPSASGTPGQRVTISCPGSSSNIGSNYVYWYQQLPGTAPKLLIYRNNQRPSGVPDRFSGSKSGTSATLGITGLQTGDEADYYCGTWDSSLSAYVFGTGTKVTVL
- binding result (human ROR2-ECD): no binding
- IC50 [4]: 24.1 nM

B12: P601-108 (scFv, V domains shown)
VH: QLQLQESGPGLVKPSETLSLTCTVSGGSISSNSYYWGWIRQPPGKGLEWIGSIYYSGSTYYNPSLKSRVTISVDTSKNQFSLKLGSVTAADTAVYYCARHDGTDAFDIWGQGTTVTVSS
VL: QSVVTQPPSVSAAPGQKVTISCSGSSSNIGKNYVSWYQQFPGTAPKLLIYDNNERPSGIPARFSGSKSGTSATLGITGLQTGDEADYYCATFDTSLWAAVFGGGTKLTVL
- binding result (human ROR2-ECD): no binding
- IC50 [4]: 0.76 nM

B13: P601-4 (scFv, V domains shown)
VH: EVQLVQSGPGLVKPSGTLSLTCAVSGGSISSSNWWSWVRQPPGKGLEWIGEIYHSGSTNYNPSLKSRVTISVDKSKNQFSLKLGSVTAADTATYYCARDLWLGEWDLWGQGTLVTVSS
VL: QSVLTQPPSASGAPGQRVTISCSGGISNVGTNGVNWYQHLPGTAPKLLVDAMNQRPSGVPDRFSGSRSGTSGSLAITGLRSEDEADYYCATWDDSLSGVLFGGGTKLTVLG
- binding result (human ROR2-ECD): no binding
- IC50 [4]: 0.93 nM

B14: P601-128 (scFv, V domains shown)
VH: EVQLVQSGAEVKKPGESLKISCKGSGYSFSRYWIGWVRQMPGKGLEWMGIIYPRDSDTRYSPSFQGQVTISADKSISTAYLQWSSLKASDTAMYYCATPVVTAGAFDIWGQGTMVTVSS
VL: DIQMTQSPSSVSASVGDRVTITCRASQGISSWLAWYQQKPGKAPKLLIYAASSLQSGVPSRFSGSGSGTDFTLTISSLQPEDFATYYCQQANSFPLTFGGGTKVEIK
- binding result (human ROR2-ECD): no binding
- IC50 [4]: 263 nM

B15: P601-70 (scFv, V domains shown)
VH: EVQLVQSGAELKKPGSSVRVSCKTSGGSFKTHGISWVRQAPGQGLEWMGWINPNSGGALYVDNFQGRATMTRDTSINTAYMELRSLSSDDTAVYYCARGMADLIDVFDIWGQGTMVTVSS
VL: TQPALTQPASVSGSPGQSITISCTGTSSDFGDYDYVSWYQQHPGKAPKLMIYDVSDRPSGVSNRFSGSKSGNTASLTISGLQAEDEADYFCSSFTTSSTLVFGGGTKLTVL
- binding result (human ROR2-ECD): no binding
- IC50 [4]: 74 nM

B16: Antibody 601-13 (antibody, V domains shown)
VH: EVQLVQSGAEVKKPGSSVKVSCKASGGTFSTFAINWVRQAPGQGLEWMGGVIPVSGTEDYSQKFQGRLSLTADESTGTAYMELSSLRSDDTAVYYCARDRSGRDWDYFDYWGQGTLVTVSS
VL: DIVMTQSPSSLSASVGDRVTITCQASQDISNYLNWYQQKPGKAPKLLIYDASNLETGVPSRFSGSGSGTDFIFTISSLQPEDIATYYCQQFDNLPYTFGQGTKVEIKR
- Kd [1]: 0.8 nM
- koff [1]: 0.0014 s⁻¹
- kon [1]: 1.8e+06 M⁻¹ s⁻¹
- Kd [2]: 0.5 nM
- koff [3]: 0.00087 s⁻¹
- kon [3]: 1.6e+06 M⁻¹ s⁻¹
